From the nanobody polyreactivity screen of Harvey et al. (2022)

Experiment: yeast display, Sf9 membrane polyspecificity reagent, FACS + sequencing; frameworks hold sequencing errors
Outline: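 Nanobodies from a synthetic yeast display library (Saccharomyces cerevisiae BJ5465), induced 36–48 hours with galactose, were stained 1 hour at 4 °C with 10% biotinylated, detergent-solubilized Sf9 membrane reagent, enriched on streptavidin microbeads, then FACS-sorted. Anti-HA (expression) and streptavidin (reagent binding) fluorescence set low and high (top ~1%) gates. Polyreactivity labels come from the gate of origin. Genes were colony-PCR amplified, MiSeq 2 × 250 sequenced and filtered by CDR length.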
With “QVQLVESGGGLVQAGGSLRLSCAASGRTLTRYTMGWYRQAPGKERELVATISRSGGNTHYADSVKGRFTISRDNAKNTVYLQMNSLKPEDTAVYYCNAVRYAIYGYDYWGQGTQVTVSS” the “polyreactivity (PSR sort gate)” value was “high polyreactivity”. In the case of “QVQLVESGGGLVQAGGSLRLSCAASGRTLVDYAMGWYRQAPGKERELVAAINFSGGSTNYADSVKGRFTISRDNAKNTVYLQMNSLKPEDTAVYYCNKEGRPDRDYWGQGTQVTVSS”, the “polyreactivity (PSR sort gate)” value is reported as “low polyreactivity”. With “QVQLVESGGGLVQAGGSLRLSCAASGRTLVKYAMGWYRQAPGKERELVAAITQRGGITYYADSVKGRFTISRDNAKNTVYLQMNSLKPEDTAVYYFAASLYSYRSPYTFYYWGQGTQVTVSS” the “polyreactivity (PSR sort gate)” value was “high polyreactivity”. For “QVQLVESGGGLVQAGGSLRLSCAASGRTLVRYAMGWYRQAPGKEREFVAGISYSGGSTYYADSVKGRFTISRDNAKNTVYLQMNSLKPEDTAVYYCAATTRGARKSGGNYWGQGTQVTVSS”, the “polyreactivity (PSR sort gate)” value was “high polyreactivity”. With “QVQLVESGGGLVQAGGSLRLSCAASGRTLWLYAMGWYRQAPGKERELVAAITRSAGTTYYADSVKGRFTISRDNAKNTVYLQMNSLKPEDTAVYYCATRYPQSSLSTSSRSSSGYWGQGTQVTVSS” the “polyreactivity (PSR sort gate)” value was “high polyreactivity”. In the case of “QVQLVESGGGLVQAGGSLRLSCAASGRTLWRYAMGWYRQAPGKERELVASIRSGGSTYYADSVKGRFTISRDNAKNTVYLQMNSLKPEDTAVYYCAARYYWGAEAGYYYWGQGTQVTVSS”, the “polyreactivity (PSR sort gate)” value is reported as “high polyreactivity”. With “QVQLVESGGGLVQAGGSLRLSCAASGRTLYFNAMGWYRQAAGKERELVASITNGGRTNYADSVKGRFTISRDNAKNTVYLQMNSLKPEDTAVYYCAKRTLCSRGVNYYWGQGTQVTVSS” the “polyreactivity (PSR sort gate)” value was “high polyreactivity”. For “QVQLVESGGGLVQAGGSLRLSCAASGRTLYGNAMGWYRQAPGKEREFVAAITRSGGTTYYADSVKGRFTISRDNAKNTVYLQMNSLKPEDTAVYYCATAFRGYTGLFYWGQGTQVTVSS”, the “polyreactivity (PSR sort gate)” value was “high polyreactivity”. For “QVQLVESGGGLVQAGGSLRLSCAASGRTLYGYAMGWYRQAPGKERELVAAISESDGSTYADSVKGRFTISRDNAKNTVYLQMNSLKPEDTAVYYCAADYYWYALQDGYYTYGYTYDYWGQGSQVTVSS”, the “polyreactivity (PSR sort gate)” value was “low polyreactivity”. For “QVQLVESGGGLVQAGGSLRLSCAASGRTLYGYAMGWYRQAPGKERELVAAISESDGSTYADSVKGRFTISRDNAKNTVYLQMNSLKPEDTAVYYCAADYYWYALQDGYYTYGYTYDYWGQGTQVTVSS”, the “polyreactivity (PSR sort gate)” value was “low polyreactivity”. For “QVQLVESGGGLVQAGGSLRLSCAASGRTLYIYAMGWYRQAPGKERELVAAIRRIGGRTYYADSVKGRFTISRDNAKNTVYLQMNSLKPEDTAVYYCNARSYRLRFSEMDYWGQGTQVTVSS”, the “polyreactivity (PSR sort gate)” value was “high polyreactivity”. In the case of “QVQLVESGGGLVQAGGSLRLSCAASGRTLYKNTMGWYRPAPGKERELVAAINYSGGSTYYADSVKGRFTISRDNAKNTVYLQMNSLKPEDTAVYYCAADYYDSTGEYDYWGQGTQVTVSS”, the “polyreactivity (PSR sort gate)” value is reported as “high polyreactivity”. With “QVQLVESGGGLVQAGGSLRLSCAASGRTLYKYAMGWYRQAPGKERELVAAISRNGGSTYYADSVKGRFTISRDNAKNTVYLQMNSLKPEDTAVYYCNALSRYRIWSYGYWGQGTQVTVSS” the “polyreactivity (PSR sort gate)” value was “high polyreactivity”. For “QVQLVESGGGLVQAGGSLRLSCAASGRTLYRNAMGWYRQAPGKERELVAAISRSGGITYYADSVKGRFTISRDNAKNTVYLQMNSLKPEDTAVYYCAARYGRGVAPYGYWGQGTQVTVSS”, the “polyreactivity (PSR sort gate)” value was “high polyreactivity”. With “QVQLVESGGGLVQAGGSLRLSCAASGRTLYRNAMGWYRQAPGKERELVARITWSGASTYYADSVKGRFTISRDNAKNTVYLQMNSLKPDDTAVYYCNTGYWYVSLGSYDYYGEYDYWGQGTQVTVSS” the “polyreactivity (PSR sort gate)” value was “high polyreactivity”. With “QVQLVESGGGLVQAGGSLRLSCAASGRTLYRYAMGWYRQAPGKERELVAAISSGGRTYYADSVKGRFTISRDNAKNTVYLQMNSLKPEDTAVYYCAAERGWWRNDFDYWGQGTQVTVSS” the “polyreactivity (PSR sort gate)” value was “high polyreactivity”. With “QVQLVESGGGLVQAGGSLRLSCAASGRTLYVYAMGWYRQAPGKEREFVAAINSSGDSTYYADSVKGRFTISRDNAKNTVYLQMNSLKPEDTAVYYCAAAGYYGYGYDYWGQGTQVTVSS” the “polyreactivity (PSR sort gate)” value was “low polyreactivity”. For “QVQLVESGGGLVQAGGSLRLSCAASGRTLYYYTMGWYRQAPGKERELVAAIRWSTGSTYYADSVKGRFTISRDNAKNTVYLQMNSLKPEDTAVYYCNAVVARLIFWQFDYWGQGTQVTVSS”, the “polyreactivity (PSR sort gate)” value was “high polyreactivity”. With “QVQLVESGGGLVQAGGSLRLSCAASGRTNRFYAMGWYRPAPGNERELVAAIRNGGRTNYADSVKGRFTIARDNAKNTVYLQMNSLKPEDTAVYSCAKQPGISYRHYDYWGQGPQVTVSS” the “polyreactivity (PSR sort gate)” value was “high polyreactivity”. With “QVQLVESGGGLVQAGGSLRLSCAASGRTQSANAMGWYREAPGKERELVATISTRGGRTYYADSVKGRFTISRDNAKNTVYLQMNSLKPEDTAVYYCAVTIRAKYTMKEDYWGQGTQVTVSS” the “polyreactivity (PSR sort gate)” value was “low polyreactivity”. For “QVQLVESGGGLVQAGGSLRLSCAASGRTQWRYAMGWYRQAPGKERELVASIRSGGSTYYADSVKGRFTISRDNAKNTVYLQMNSLKPEDTAVYYCAARYYWGAEAGYYYWGQGTQVTVSS”, the “polyreactivity (PSR sort gate)” value was “high polyreactivity”. For “QVQLVESGGGLVQAGGSLRLSCAASGRTRYPYTMGWYRQAPGKERELVAAITSSGGRTTYADSVKGRFTISRDNAKNTVFLQMYSLKPEDRAVYYCAKKFRPGYRSQYLRYSWGQGSQVTVSS”, the “polyreactivity (PSR sort gate)” value was “low polyreactivity”. With “QVQLVESGGGLVQAGGSLRLSCAASGRTSAINAMGWYRQAPGKERELVADITRTGGTYADSVKGRFTISRDNAKNNVYLQMNSLKPEVTAVYYCAAVGAWRFDYWGQGTQVTVSS” the “polyreactivity (PSR sort gate)” value was “high polyreactivity”. With “QVQLVESGGGLVQAGGSLRLSCAASGRTSDGYAMGWYRQAPGKERELVAGITEGGGDTYYADSVKGRFTISRDNAKNTVYLQMNSLKPEDTAVYYCNAVEGSRLPYDYWGQGTQVTVSS” the “polyreactivity (PSR sort gate)” value was “low polyreactivity”. For “QVQLVESGGGLVQAGGSLRLSCAASGRTSDSYAMGWYRQAPGKERELVAVISRSGRTYYADSVKGRFTISRDNAKNTVYLQMNSLKPEDTAVYYCAAKWFRTWSGYWGQGTQVTVSS”, the “polyreactivity (PSR sort gate)” value was “high polyreactivity”. With “QVQLVESGGGLVQAGGSLRLSCAASGRTSFQYAMGWYRQAPGKERELVAAISWSGGSTFYADSVKGRFTISRDNAKNTVYLQMNSLKPEDTAVYYCNAVSTDSWAYHGDYWGQGTQVTVSS” the “polyreactivity (PSR sort gate)” value was “low polyreactivity”. In the case of “QVQLVESGGGLVQAGGSLRLSCAASGRTSGFNTMGWYRQAPGKERELVAAISFSGGSTYYADSVKGRFTISRDNAKNTVYFQMNSLKPEDTAVSYCNALFRYLYRSGDYWRQGTQVTVSS”, the “polyreactivity (PSR sort gate)” value is reported as “low polyreactivity”. In the case of “QVQLVESGGGLVQAGGSLRLSCAASGRTSGYYAMGWYRQAPGKERELVATISGNVGRTYYADSVKGRFTISRDNAKNTVYLQMNSLKPEDTAVYYCAARTYGPYDYWGQGTQVTVSS”, the “polyreactivity (PSR sort gate)” value is reported as “low polyreactivity”. With “QVQLVESGGGLVQAGGSLRLSCAASGRTSLAYSMGWYRQAPGKERELVAAINTRGGSTYYADSVKGRFTISRDNAKNTVYLQINSLKPEDTAVYYCAKGPRLYFTPDKAHWKYDSWGQGTQVTVSS” the “polyreactivity (PSR sort gate)” value was “low polyreactivity”. For “QVQLVESGGGLVQAGGSLRLSCAASGRTSLGYDMGWYRPAPGQEGELVAAITRSGGSTYYADSVKGRFTISRDNAKNTVYLQMNSLKPEDTAVYYCNRVLPHPDGYGVGARGYWGKGTQVTVSS”, the “polyreactivity (PSR sort gate)” value was “high polyreactivity”. For “QVQLVESGGGLVQAGGSLRLSCAASGRTSLNYAMGWYRQAPGKERELVAAITLRGGNTYYADSVKGRFTISRDNAKNTVYLQMNSLKPEDTAVYYCAAYTKEISIYYPYEYWGQGTQVTVSS”, the “polyreactivity (PSR sort gate)” value was “high polyreactivity”.
